Measured values as given in patent US20180155451A1 (published 2018).

T1: FcγRIIa H (FcγRIIa type H, His at position 131), extracellular domain with C-terminal His tag (human, UniProt P12318 34-217)
T1 construct: extracellular domain; Expressed in FreeStyle293 cells; analyte in the Biacore assay; also called FcgRIIa H; 2aH; not shown: His tag at the C terminus
T1 sequence (looked up): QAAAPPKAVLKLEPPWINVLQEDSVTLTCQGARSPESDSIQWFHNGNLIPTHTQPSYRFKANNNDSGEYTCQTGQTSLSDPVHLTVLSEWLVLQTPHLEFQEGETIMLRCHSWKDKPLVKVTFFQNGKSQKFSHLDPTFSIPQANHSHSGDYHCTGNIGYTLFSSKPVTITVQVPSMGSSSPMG

T2: FcγRIIb, extracellular domain with C-terminal His tag (human, UniProt P31994 43-217)
T2 construct: extracellular domain; Expressed in FreeStyle293 cells; analyte in the Biacore assay; also called FcgRIIb; 2b; not shown: His tag at the C terminus
T2 sequence (looked up): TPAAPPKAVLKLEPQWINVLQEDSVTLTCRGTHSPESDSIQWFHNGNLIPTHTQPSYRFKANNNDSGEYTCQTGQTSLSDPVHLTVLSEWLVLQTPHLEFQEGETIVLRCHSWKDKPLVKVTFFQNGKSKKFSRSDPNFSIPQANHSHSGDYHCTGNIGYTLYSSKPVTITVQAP

T3: FcγRIIb extracellular domain with C-terminal His tag (human, UniProt P31994 43-217)
T3 construct: extracellular domain; Soluble receptor expressed in FreeStyle293 cells; analyte in Biacore; also called FcgRIIb; 2b; not shown: His tag at the C terminus
T3 sequence (looked up): T2 sequence (looked up)

B1: GpH7-A5/GpH7-B3 variant E333_01G/GpL16-k0 (antibody, human IgG1, kappa)
heavy 1: not shown
heavy 2: not shown
light: DIVMTQSPLSLPVTPGEPASISCQASESLVHSNRNTYLHWYLQKPGQSPQLLIYKVSNRFSGVPDRFSGSGSGTDFTLKISRVEAEDVGVYYCSQNTHVPPTFGQGTKVEIERTVAAPSVFIFPPSDEQLKSGTASVVCLLNNFYPREAKVQWKVDNALQSGNSQESVTEQDSKDSTYSLSSTLTLSKADYEKHKVYACEVTHQGLSSPVTKSFNRGEC
notes: He Ab; IgG1; mutation in one H chain only; also called He Ab
B2: GpH7-A5/GpH7-B3 variant I336_20W/GpL16-k0 (antibody, human IgG1, kappa)
heavy 1: not shown
heavy 2: not shown
light: B1 light
notes: as for B1
B3: GpH7-A5/GpH7-B3 variant A330_07I/GpL16-k0 (antibody, human IgG1, kappa)
heavy 1: not shown
heavy 2: not shown
light: B1 light
notes: as for B1
B4: GpH7-A5/GpH7-B3 variant I332_03V/GpL16-k0 (antibody, human IgG1, kappa)
heavy 1: not shown
heavy 2: not shown
light: B1 light
notes: as for B1
B5: GpH7-A5/GpH7-B3 variant P329_18N/GpL16-k0 (antibody, human IgG1, kappa)
heavy 1: not shown
heavy 2: not shown
light: B1 light
notes: He Ab: heterodimerized anti-glypican-3 IgG1, substitution in one H chain only; also called He Ab P329N
B6: GpH7-A5/GpH7-B3 variant E333_18N/GpL16-k0 (antibody, human IgG1, kappa)
heavy 1: not shown
heavy 2: not shown
light: B1 light
notes: as for B1
B7: GpH7-A5/GpH7-B3 variant P329_03V/GpL16-k0 (antibody, human IgG1, kappa)
heavy 1: not shown
heavy 2: not shown
light: B1 light
notes: as for B1
B8: GpH7-A5/GpH7-B3 variant P329_02A/GpL16-k0 (antibody, human IgG1, kappa)
heavy 1: not shown
heavy 2: not shown
light: B1 light
notes: as for B1
B9: GpH7-A5/GpH7-B3 variant A327_04F/GpL16-k0 (antibody, human IgG1, kappa)
heavy 1: not shown
heavy 2: not shown
light: B1 light
notes: as for B1
B10: GpH7-A5/GpH7-B3 variant I332_12R/GpL16-k0 (antibody, human IgG1, kappa)
heavy 1: not shown
heavy 2: not shown
light: B1 light
notes: as for B1
B11: GpH7-A5/GpH7-B3 variant A330_13S/GpL16-k0 (antibody, human IgG1, kappa)
heavy 1: not shown
heavy 2: not shown
light: B1 light
notes: as for B1
B12: GpH7-A5/GpH7-B3 variant N325_12R/GpL16-k0 (antibody, human IgG1, kappa)
heavy 1: not shown
heavy 2: not shown
light: B1 light
notes: as for B1
B13: GpH7-A5/GpH7-B3 variant A330_14T/GpL16-k0 (antibody, human IgG1, kappa)
heavy 1: not shown
heavy 2: not shown
light: B1 light
notes: as for B1
B14: GpH7-A5/GpH7-B3 variant T335_11K/GpL16-k0 (antibody, human IgG1, kappa)
heavy 1: not shown
heavy 2: not shown
light: B1 light
notes: He Ab: heterodimerized anti-glypican-3 IgG1, substitution in one H chain only; also called He Ab T335K
B15: GpH7-A5/GpH7-B3 variant A327_06M/GpL16-k0 (antibody, human IgG1, kappa)
heavy 1: not shown
heavy 2: not shown
light: B1 light
notes: as for B1
B16: GpH7-A5/GpH7-B3 variant A330_12R/GpL16-k0 (antibody, human IgG1, kappa)
heavy 1: not shown
heavy 2: not shown
light: B1 light
notes: as for B1
B17: GpH7-A5/GpH7-B3 variant A330_08L/GpL16-k0 (antibody, human IgG1, kappa)
heavy 1: not shown
heavy 2: not shown
light: B1 light
notes: as for B1

Experiments:
[1] = molecular target: T1, FcγRIIa H (FcγRIIa type H, His at …); assay: SPR Biacore; He/Con_2aH divided by He/Con_2b (reference: FcgRIIb)
[2] = molecular target: T2, FcγRIIb, extracellular domain with …; assay: SPR Biacore, captured antibody, FcgR analyte; GpH7-A5/GpH7-B3/GpL16-k0 = 100
[3] = molecular target: T1, FcγRIIa H (FcγRIIa type H, His at …); assay: as above
[4] = molecular target: T4, FcγRIa extracellular domain with C-terminal His tag (human, UniProt P12314 16-292); assay: SPR (Biacore); He/Con_1a divided by He/Con_2b (FcγRIIb)
T4 construct: extracellular domain; Soluble receptor expressed in FreeStyle293 cells; analyte in Biacore; also called FcgRI; FcgRIa; not shown: His tag at the C terminus
T4 sequence (P12314 16-292): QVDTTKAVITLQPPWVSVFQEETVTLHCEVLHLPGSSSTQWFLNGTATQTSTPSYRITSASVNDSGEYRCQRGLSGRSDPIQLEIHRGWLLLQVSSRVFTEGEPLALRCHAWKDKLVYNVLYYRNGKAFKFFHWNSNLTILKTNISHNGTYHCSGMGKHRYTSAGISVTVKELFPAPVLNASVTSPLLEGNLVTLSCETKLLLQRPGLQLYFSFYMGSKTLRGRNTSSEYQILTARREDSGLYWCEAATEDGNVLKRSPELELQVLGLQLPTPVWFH
Procedure, shortened: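 Measurements were made at 25 °C with HBS-EP+ as running buffer. Each antibody sat on a chip bearing its antigen peptide, amine-coupled or streptavidin-bound, while FcγR was passed over; 10 mM glycine-HCl, pH 1.5 removed captured antibody.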

[5] = molecular target: T4, FcγRIa extracellular domain with …; assay: SPR (Biacore), antibody captured on antigen peptide chip, FcγR as analyte; binding relative to GpH7-A5/GpH7-B3/GpL16-k0 = 100
[6] = molecular target: T3, FcγRIIb extracellular domain with …; assay: as above

Binder	He_2aH/2b (IIaH/IIb) [1]	He/Con_2b [2]	He/Con_2aH [3]	He_1a/2b (Ia/IIb) [4]	He/Con_1a (Ia binding) [5]	He/Con_2b (IIb binding) [6]
B1	1.2	81.4 % of HeCon Ab	97.7 % of HeCon Ab			
B2	1.52	20.3 % of HeCon Ab	30.9 % of HeCon Ab			
B3	1.3	67.1 % of HeCon Ab	87.3 % of HeCon Ab			
B4	1.3	80.7 % of HeCon Ab	105 % of HeCon Ab			
B5				2.29	92.4 % of control (control = 100)	40.4 % of control (control = 100)
B6	1.26	76.1 % of HeCon Ab	96.2 % of HeCon Ab			
B7	1.57	38.5 % of HeCon Ab	60.4 % of HeCon Ab			
B8	1.62	40.5 % of HeCon Ab	65.7 % of HeCon Ab			
B9	1.32	63.7 % of HeCon Ab	84.4 % of HeCon Ab			
B10	1.8	48.9 % of HeCon Ab	87.8 % of HeCon Ab			
B11	1.58	41.3 % of HeCon Ab	65.4 % of HeCon Ab			
B12	1.56	19.1 % of HeCon Ab	29.9 % of HeCon Ab			
B13	1.21	77.9 % of HeCon Ab	94.5 % of HeCon Ab			
B14				1.22	111 % of control (control = 100)	91 % of control (control = 100)
B15	1.27	59.5 % of HeCon Ab	75.5 % of HeCon Ab			
B16	1.27	84.8 % of HeCon Ab	108 % of HeCon Ab			
B17	1.24	70.5 % of HeCon Ab	87.6 % of HeCon Ab			
